From patent US20050163770A1 (CONNEX, published 2005)
Ends that are not written are not given here.

Assays:
[1] = biological target: T1, zeta-peptide-BSA-conjugate (not fully specified (residue 11); also: C-terminal Cys thiol coupled to BSA); assay: ELISA of rat hybridoma supernatants (diluted 1:1) on immobilized zeta-peptide-BSA-conjugate
T1 construct: also called zeta-peptide conjugated to bovine serum albumin
T1 peptide: QSFGLLDPKLC

[2] = biological target: T2, native zeta-chain from the lysate of CD8+ T-lymphocytes (human, UniProt P20963 22-164); assay: sandwich ELISA: zeta-chain from lysate captured by the antibody to amino acids 144-163, 2-B-5 at 1 ug/ml
T2 construct: Endogenous protein in a detergent lysate, captured on the plate by an antibody to the C-terminus; also called zeta-chain molecules from the T-cell lysate
T2 sequence (P20963 22-164 limits assumed): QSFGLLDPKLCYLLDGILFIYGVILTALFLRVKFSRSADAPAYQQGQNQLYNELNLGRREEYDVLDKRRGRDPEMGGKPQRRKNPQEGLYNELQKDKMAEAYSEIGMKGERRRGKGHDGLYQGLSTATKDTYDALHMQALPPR
Experimental: FIG. 4: Results of a Sandwich-ELISA confirming the reactivity of antibody 2-B-5 with native zeta-chain present in the lysate of the CD8⁺-T-cell lymphocytes. A zeta-chain specific antibody, which recognizes the amino acids 144-163 at the carboxy-terminus of the human zeta chain was coated for 12 hours to the wells of a 96 U-bottom plate, followed by blockade for one hour at room temperature with PBS/3% BSA. Subsequently the lysate of CD8⁺-cells was added undiluted and in several dilutions and incubated for one hour at room temperature. As negative control, the wells were incubated with PBS instead of the cell lysate. […] Bound 2-B-5 antibody was detected with a biotinylated mouse-anti-rat IgM antibody followed by an Avidin-peroxidase-conjugate. […] The colored precipitate was measured at 405 nm using an ELISA-reader.
A zeta-chain specific antibody (Santa Cruz Biotechnology, Cat-No 1124), which recognizes the amino acids 144-163 at the carboxy-terminus of the zeta chain was coated to wells of a 96 U-bottom plate (Nunc, maxisorb) at a concentration of 5 μg/ml. […] Bound 2-B-5 antibody was detected with a biotinylated mouse-anti-rat IgM antibody (Zymed, San Francisco, Calif., USA; Cat-No 03-9840; working concentration 400 ng/ml) followed by an Avidin-peroxidase-conjugate (Dako, Hamburg; Code-No P 03347; working concentration 1 μg/ml). […]

[3] = biological target: T3, human zeta-chain on the surface of CD8+ T-lymphocytes and NK-cells (human, UniProt P20963 22-164); assay: flow cytometry on human PBMC gated for CD8+ T-lymphocytes and NK-cells
T3 construct: whole, on cells; also called extracellular domain of the human zeta-chain on intact cells
T3 sequence (P20963 22-164): as the sequence (P20963 22-164 limits assumed) above
Experimental: FIG. 3: Flowcytometry-analysis of the zeta-chain specific binding activity of the 2-B-5 antibody on the surface of CD8⁺-T-lymphocytes and NK-cells. 100.000 mononucleated cells from peripheral blood of two different healthy donors were incubated with undiluted cell culture supernatant of the 2-B-5 hybridoma. Bound zeta-chain specific rat antibody was detected by a fluorescein (FITC) conjugated goat-anti-rat Ig (IgG+IgM) antibody diluted 1:100 in PBS. Triple color fluorescence analysis was carried out by applying a positive gate for CD8⁺ (Tricolor) and a negative gate for CD16⁺ (PE) cells thus allowing the detection of FITC-mediated fluorescence (filled lines) exclusively attributed to CD8⁺-T-lymphocytes (phenotype: CD8⁺, CD16⁻) without any contaminating signals from CD8⁺-NK-cells. Similarly, triple color fluorescence analysis was carried out by applying a positive gate for CD56⁺-(PE) and a negative gate for CD3⁺-cells (tricolor) thus allowing the detection of FITC-mediated fluorescence (filled lines) exclusively attributed to NK-cells (phenotype: CD56⁺, CD3⁻) without any contaminating signals from CD56⁺-T-lymphocytes. As isotype control (broken lines) culture supernatant of an antibody with the same isotype (rat IgM) but irrelevant specificity was used. […] Cells were analyzed by flowcytometry on a FACS-scan (Becton Dickinson).

binding result [1]: binds | binding result [2]: binds | binding result [3]: binds
B1: rat monoclonal anti-zeta-chain antibody 2-B-5 (rat IgM) (antibody, V domains shown)
VH: QVQLQQSGAELVKPGSSVKISCKASGYTFTSYDMHWIKQQPGNGLEWIGWIYPGNGNTKYNQKFNGKATLTADKSSSTAYMQLSSLTSEDSAVYFCARDWHYYSSYIRPFAYWGQGTLVTVSS
VL: DIQMTQSPASLSASPEEIVTITCQASQDIGNWLAWYQQKPGKSPQLLIYSATSLADGIPSRFSGSRSGTQYSLKISRLQVEDTGIYYCLQRYSNPNTFGAGTKLELK
notes: Rat IgM with kappa light chain; Used as hybridoma culture supernatant or purified by ion exchange chromatography; The constant regions are rat mu and kappa; also called 2-B-S; 2-B-5 hybridoma antibody
